± gives the standard deviation of the averaged measurements.
Assay: total protein half-life in vivo (active degradation + dilution); higher = more stable protein
[1] = E. coli NCM3722 delta-smpB, growth: N-lim chemostat, doubling time 6 h
[2] = wild type E. coli NCM3722, growth: C-lim chemostat, doubling time 3 h
[3] = wild type E. coli NCM3722, growth: C-lim chemostat, doubling time 6 h
[4] = wild type E. coli NCM3722, growth: N-lim chemostat, doubling time 6 h
[5] = wild type E. coli NCM3722, growth: P-lim chemostat, doubling time 12 h
[6] = E. coli NCM3722 delta-clpP delta-lon delta-hslV, growth: N-lim chemostat, doubling time 6 h
[7] = E. coli NCM3722 delta-clpP, growth: N-lim chemostat, doubling time 6 h
[8] = E. coli NCM3722 delta-hslV, growth: N-lim chemostat, doubling time 6 h
[9] = E. coli NCM3722 delta-lon, growth: N-lim chemostat, doubling time 6 h
[10] = wild type E. coli NCM3722, growth: C-lim chemostat, doubling time 12 h
[11] = wild type E. coli NCM3722, growth: N-lim chemostat, doubling time 12 h
[12] = wild type E. coli NCM3722, growth: P-lim chemostat, doubling time 6 h

MATPYISMAGIGKSFGPVHALKSVNLTVYPGEIHALLGENGAGKSTLMKVLSGIHEPTKGTITINNISYNKLDHKLAAQLGIGIIYQELSVIDELTVLENLYIGRHLTKKICGVNIIDWREMRVRAAMMLLRVGLKVDLDEKVANLSISHKQMLEIAKTLMLDAKVIIMDEPTSSLTNKEVDYLFLIMNQLRKEGTAIVYISHKLAEIRRICDRYTVMKDGSSVCSGIVSDVSNDDIVRLMVGRELQNRFNAMKENVSNLAHETVFEVRNVTSRDRKKVRDISFSVCRGEILGFAGLVGSGRTELMNCLFGVDKRAGGEIRLNGKDISPRSPLDAVKKGMAYITESRRDNGFFPNFSIAQNMAISRSLKDGGYKGAMGLFHEVDEQRTAENQRELLALKCHSVNQNITELSGGNQQKVLISKWLCCCPEVIIFDEPTRGIDVGAKAEIYKVMRQLADDGKVILMVSSELPEIITVCDRIAVFCEGRLTQILTNRDDMSEEEIMAWALPQE
total protein half-life in vivo [1]: > 8 h | total protein half-life in vivo [2]: 2.84 ± 0.095 h | total protein half-life in vivo [3]: 5.265 ± 0.0056 h | total protein half-life in vivo [4]: 6.14 h | total protein half-life in vivo [5]: 10.6 h

MATTHLDVCAVVPAAGFGRRMQTECPKQYLSIGNQTILEHSVHALLAHPRVKRVVIAISPGDSRFAQLPLANHPQITVVDGGDERADSVLAGLKAAGDAQWVLVHDAARPCLHQDDLARLLALSETSRTGGILAAPVRDTMKRAEPGKNAIAHTVDRNGLWHALTPQFFPRELLHDCLTRALNEGATITDEASALEYCGFHPQLVEGRADNIKVTRPEDLALAEFYLTRTIHQENT
total protein half-life in vivo [6]: 4.65 ± 0.39 h | total protein half-life in vivo [7]: 5.096 ± 0.047 h | total protein half-life in vivo [8]: 5.2 ± 1.2 h | total protein half-life in vivo [9]: 4.6 ± 2.6 h | total protein half-life in vivo [1]: 4.66 ± 0.47 h | total protein half-life in vivo [2]: 3.29 ± 0.43 h | total protein half-life in vivo [3]: 6.7 ± 1.2 h | total protein half-life in vivo [10]: 10.6 ± 1.2 h | total protein half-life in vivo [4]: 5.66 ± 1.1 h | total protein half-life in vivo [11]: 8.34 ± 2 h | total protein half-life in vivo [5]: 11.96 ± 0.058 h

MATTQQSGFAPAASPLASTIVQTPDDAIVAGFTSIPSQGDNMPAYHARPKQSDGPLPVVIVVQEIFGVHEHIRDICRRLALEGYLAIAPELYFREGDPNDFADIPTLLSGLVAKVPDSQVLADLDHVASWASRNGGDVHRLMITGFCWGGRITWLYAAHNPQLKAAVAWYGKLTGDKSLNSPKQPVDIATDLNAPILGLYGGQDNSIPQESVETMRQALRAANAKAEIIVYPDAGHAFNADYRPSYHAASAEDGWQRMLEWFKQYGGKKSL
total protein half-life in vivo [6]: 4.8 ± 0.66 h | total protein half-life in vivo [7]: 3.82 ± 0.21 h | total protein half-life in vivo [8]: 4.01 ± 0.11 h | total protein half-life in vivo [9]: 4.18 ± 0.37 h | total protein half-life in vivo [1]: 3.92 ± 0.051 h | total protein half-life in vivo [2]: 2.59 ± 0.14 h | total protein half-life in vivo [3]: 4.52 ± 0.53 h | total protein half-life in vivo [10]: 8.52 ± 2.4 h | total protein half-life in vivo [4]: 3.85 ± 0.1 h | total protein half-life in vivo [11]: 5.35 ± 1.5 h | total protein half-life in vivo [12]: 4.06 ± 0.17 h | total protein half-life in vivo [5]: 8.35 ± 0.2 h

MATTTAECLTQETMDYHALNAMLNLYDSAGRIQFDKDRQAVDAFIATHVRPNSVTFSSQQQRLNWLVNEGYYDESVLNRYSRDFVITLFTHAHTSGFRFQTFLGAWKFYTSYTLKTFDGKRYLEDFADRVTMVALTLAQGDETLALQLTDEMLSGRFQPATPTFLNCGKQQRGELVSCFLLRIEDNMESIGRAVNSALQLSKRGGGVAFLLSNLREAGAPIKRIENQSSGVIPVMKMLEDAFSYANQLGARQGAGAVYLHAHHPDILRFLDTKRENADEKIRIKTLSLGVVIPDITFHLAKENAQMALFSPYDVERVYGKPFADVAISQHYDELVADERIRKKYLNARDFFQRLAEIQFESGYPYIMYEDTVNRANPIAGRINMSNLCSEILQVNSASEYDENLDYTRTGHDISCNLGSLNIAHTMDSPDFARTVETAVRGLTAVSDMSHIRSVPSIEAGNAASHAIGLGQMNLHGYLAREGIAYGSPEALDFTNLYFYAITWHALRTSMLLARERGETFAGFKQSRYASGEYFSQYLQGNWQPKTAKVGELFTRSGITLPTREMWAQLRDDVMRYGIYNQNLQAVPPTGSISYINHATSSIHPIVAKVEIRKEGKTGRVYYPAPFMTNENLALYQDAYEIGAEKIIDTYAEATRHVDQGLSLTLFFPDTATTRDINKAQIYAWRKGIKTLYYIRLRQMALEGTEIEGCVSCAL
total protein half-life in vivo [6]: 4.76 ± 0.29 h | total protein half-life in vivo [7]: 4.61 ± 2.7 h | total protein half-life in vivo [3]: 2.61 ± 0.17 h | total protein half-life in vivo [10]: 2.88 ± 1.4 h

MAVIQDIIAALWQHDFAALADPHIVSVVYFVMFATLFLENGLLPASFLPGDSLLILAGALIAQGVMDFLPTIAILTAAASLGCWLSYIQGRWLGNTKTVKGWLAQLPAKYHQRATCMFDRHGLLALLAGRFLAFVRTLLPTMAGISGLPNRRFQFFNWLSGLLWVSVVTSFGYALSMIPFVKRHEDQVMTFLMILPIALLTAGLLGTLFVVIKKKYCNA [P0AA60]
total protein half-life in vivo [6]: 4.46 h | total protein half-life in vivo [7]: 4.55 h | total protein half-life in vivo [8]: 3.26 h | total protein half-life in vivo [2]: 2.23 h | total protein half-life in vivo [3]: 4.04 ± 1.4 h | total protein half-life in vivo [10]: 7.25 h | total protein half-life in vivo [12]: > 8 h | total protein half-life in vivo [5]: 8.67 h

MAVQKNVIKGILAGTFALMLSGCVTVPDAIKGSSPTPQQDLVRVMSAPQLYVGQEARFGGKVVAVQNQQGKTRLEIATVPLDSGARPTLGEPSRGRIYADVNGFLDPVDFRGQLVTVVGPITGAVDGKIGNTPYKFMVMQVTGYKRWHLTQQVIMPPQPIDPWFYGGRGWPYGYGGWGWYNPGPARVQTVVTE [P0AA91]
total protein half-life in vivo [6]: 6.07 ± 0.61 h | total protein half-life in vivo [7]: 6.3 ± 0.12 h | total protein half-life in vivo [8]: 6.13 ± 0.12 h | total protein half-life in vivo [9]: 6.532 ± 0.04 h | total protein half-life in vivo [1]: 5.76 ± 0.071 h | total protein half-life in vivo [2]: 3.01 ± 0.17 h | total protein half-life in vivo [3]: 6.05 ± 0.21 h | total protein half-life in vivo [10]: 10.7 ± 2.4 h | total protein half-life in vivo [4]: 6.52 ± 0.45 h | total protein half-life in vivo [11]: 13.7 ± 1.7 h | total protein half-life in vivo [12]: 6.13 ± 0.1 h

MAYFLDFDERALKEWRKLGSTVREQLKKKLVEVLESPRIEANKLRGMPDCYKIKLRSSGYRLVYQVIDEKVVVFVISVGKRERSEVYSEAVKRIL [P0C077]
total protein half-life in vivo [6]: 4.02 ± 0.45 h | total protein half-life in vivo [7]: 3.59 ± 0.8 h | total protein half-life in vivo [8]: 2.54 ± 0.14 h | total protein half-life in vivo [9]: 3.36 ± 0.24 h | total protein half-life in vivo [1]: 2.83 ± 0.12 h | total protein half-life in vivo [2]: 3 ± 0.35 h | total protein half-life in vivo [3]: 4.25 ± 0.73 h | total protein half-life in vivo [10]: 6.2 ± 0.85 h | total protein half-life in vivo [4]: 2.58 ± 0.06 h | total protein half-life in vivo [11]: 3.73 ± 0.099 h | total protein half-life in vivo [12]: 3.75 ± 0.74 h | total protein half-life in vivo [5]: 11.3 ± 0.5 h

MAYSKIRQPKLSDVIEQQLEFLILEGTLRPGEKLPPERELAKQFDVSRPSLREAIQRLEAKGLLLRRQGGGTFVQSSLWQSFSDPLVELLSDHPESQYDLLETRHALEGIAAYYAALRSTDEDKERIRELHHAIELAQQSGDLDAESNAVLQYQIAVTEAAHNVVLLHLLRCMEPMLAQNVRQNFELLYSRREMLPLVSSHRTRIFEAIMAGKPEEAREASHRHLAFIEEILLDRSREESRRERSLRRLEQRKN [P0ACL9]
total protein half-life in vivo [6]: 5.54 ± 0.1 h | total protein half-life in vivo [7]: 5.3 ± 0.09 h | total protein half-life in vivo [8]: 4.94 ± 0.19 h | total protein half-life in vivo [9]: 4.33 h | total protein half-life in vivo [1]: 4.54 ± 0.35 h | total protein half-life in vivo [2]: 2.94 ± 0.1 h | total protein half-life in vivo [3]: 6.361 ± 0.042 h | total protein half-life in vivo [10]: 9.49 ± 0.8 h | total protein half-life in vivo [4]: 4.53 ± 0.67 h | total protein half-life in vivo [11]: 9.28 h | total protein half-life in vivo [12]: 5.59 ± 0.71 h | total protein half-life in vivo [5]: 11.2 ± 1.1 h

MCEHHHAAKHILCSQCDMLVALPRLEHGQKAACPRCGTTLTVAWDAPRQRPTAYALAALFMLLLSNLFPFVNMNVAGVTSEITLLEIPGVLFSEDYASLGTFFLLFVQLVPAFCLITILLLVNRAELPVRLKEQLARVLFQLKTWGMAEIFLAGVLVSFVKLMAYGSIGVGSSFLPWCLFCVLQLRAFQCVDRRWLWDDIAPMPELRQPLKPGVTGIRQGLRSCSCCTAILPADEPVCPRCSTKGYVRRRNSLQWTLALLVTSIMLYLPANILPIMVTDLLGSKMPSTILAGVILLWSEGSYPVAAVIFLASIMVPTLKMIAIAWLCWDAKGHGKRDSERMHLIYEVVEFVGRWSMIDVFVIAVLSALVRMGGLMSIYPAMGALMFALVVIMTMFSAMTFDPRLSWDRQPESEHEES [P0AFL9]
total protein half-life in vivo [11]: 11 h
